How the values were obtained:
[1] = target: human chemokine receptor 5 (CCR5) (human) (UniProt P51681); assay: cell-based or functional assay
murine CCR5 (murine) = murine CCR5 (murine) (UniProt P51682); assay: cell-based or functional assay
Sequence of UniProt P51682 (P51682 whole entry): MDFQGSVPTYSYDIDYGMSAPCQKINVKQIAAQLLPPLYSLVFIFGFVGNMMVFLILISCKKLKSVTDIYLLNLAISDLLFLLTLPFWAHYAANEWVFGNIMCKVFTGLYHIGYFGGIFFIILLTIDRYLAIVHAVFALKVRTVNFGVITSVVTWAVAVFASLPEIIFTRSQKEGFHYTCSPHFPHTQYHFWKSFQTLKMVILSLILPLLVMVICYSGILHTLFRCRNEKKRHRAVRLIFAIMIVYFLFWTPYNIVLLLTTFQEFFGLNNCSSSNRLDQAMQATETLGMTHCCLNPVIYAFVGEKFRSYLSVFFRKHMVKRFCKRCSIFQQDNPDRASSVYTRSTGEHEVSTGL

chemokine-toxin fusion protein RANTES-PE38
cytotoxicity on CCR5 positive CHO cells (48 h): concentration of complete destruction [1]: 2 nM
cytotoxicity on CHO cells expressing human CCR5 (40 h): concentration of complete killing [1]: 10 nM
cytotoxicity on CHO cells expressing murine CCR5 (40 h, light microscopy) (murine CCR5 (murine)): 10 nM

From patent WO2002020615A2
